The experiment deals with mouse glycophorin-A on mouse erythrocytes (mouse) (UniProt P14220). The experiment is described as follows: in vivo, flow cytometry of circulating erythrocytes after intravenous administration.

“8-arm PEG-ERY1 (8-arm PEG-ERY1-ALEXAFLUOR647)” gave a cell-surface half-life of 2.2 h.

The record behind these values is patent US20120178139A1.
